Molecular target: HAUSP^62–205 (HAUSP TRAF domain) (UniProt Q93009)
Experiment: ITC

Chain of HAUSP^62–205 (HAUSP TRAF domain) (Q93009 62-205): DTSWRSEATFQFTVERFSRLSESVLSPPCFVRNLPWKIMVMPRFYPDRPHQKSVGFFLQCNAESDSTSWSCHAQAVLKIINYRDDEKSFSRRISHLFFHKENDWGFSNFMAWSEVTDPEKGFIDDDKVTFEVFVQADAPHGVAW

Row | Ka [M⁻¹] | Substance
1 | 65000 | p53^350–364 peptide (from UniProt P04637 350-364)
2 | 67000 | p53^355–369 peptide (from UniProt P04637 355-369)

From publication PMC3589550
